Experimental data reported in patent US20140301945A1 (NEURIMMUNE, published 2014).

B1: NI-204.9F6 (antibody, human IgG1, V domains shown)
VH: EVQLVESGGGLVQPGGSLRLSCAVSGFTFDTFAMSWVRQAPGKGLEWVSAITASSSKTYYADSVKGRFTISRDNSRNTVYLRLSSLRADDTAVYFCARPKGAHSGLYIESAFDLWGPGTMVTVSS
VL: SYVLTQPPSVSVSAGQTASITCSADMLGDTYVSWYQKRPGQSPVLLIYQDSKRPSEIPERFSGSSSEDTATLTITGTQALDEAAYYCQVWDRRTTTYVFGPGTEVTVL
notes: also called NI-209.9F6
B2: NI-204.12G7 (antibody, human IgG1, V domains shown)
VH: EVQLVESGAEVKKPGASVTLSCKASGYTFTAYYIHWVRQAREQGLEWMGVINPSTGTTFYAQNFPDRVSVTRDTSTSTVFMELHNLKSEDTAVYYCARAISEHGSGSYSPYYWGQGTLVTVSS
VL: SYVLTQPPSVSVSLGQMAAITCSGEALPKKYGYWYQQKPGQVPVLLIYRDVERPSGVPDRFSGSSSGTMVTLTISGVQAEDEADYYCLSADSSGTWVFGGGTKLTVL
B3: NI-204.10A8 (antibody, human IgG1, V domains shown)
VH: EVQLVESGAEVKEPGSSVRVSCKTSGGSFNRHVITWVRQAPGQGLEWMGEIIPFFGTPKYAPKFQGRVTIIADASTSTFFLDVKSLTSEDTALYFCWIVVVSVVQRREDFWGQGILVTVSS
VL: EIVLTQSPSSLSASVGDTVTITCRSSQNISNYLSWFQHKPGKAPRILVYAASTLQTGVPSRFSGRGSGTIFTLSITSLQSEDYATYYCQQNDKIPRTFGQGTKVEIK
B4: NI-204.10D12 (antibody, V domains shown)
VH: EVQLVESGGDLVRPGGSLRLSCVASGFTFSNYWMHWVRQAPGQRPVWVSRTNTDGRNTAYADYAKGRFTISRDNAKSTLYLQLNSLRAEDTAVYFCARLRRNVADQITHNYYMDVWGKGTLVTVSS
VL: EIVLTQSPGSLAVSLGERATINCKSSQTVLYNNKNYLAWYQQKPGQPPKLLISWASSRESGVPDRFSGSGSGTDFTLTISSLQAEDVAVYYCQHYYGTPVTFGGGTKVEIK
B5: NI-204.7B3 (antibody, human IgG1, V domains shown)
VH: EVQLVQSGGDIVQSGGSLRLSCAASGFVFSSNWMHWVRQRPGKGLEWISLINVDGRTTKYADSVKGRFTISRDNAKKTVYLQMDSLRAEDTAVYYCVKVEGLNWGPGTLVTVSS
VL: LPVLTQPPSVSVSPGQTARITCSGDELSKQYAYWYQKKSGQAPVMVVNEDTKRPPGIPERFSGSSSGTTSTLTISGVQAEDEADYYCQSADITGSWVFGGGTKLTVL
B6: NI-204.6H1 (antibody, human IgG1, V domains shown)
VH: QVQLQQWGAGRLRPSETLSLTCAVYGGSFNGYARTWIRQPPGKGLEWIGEIDHRENTNYNPSLKSRVTMSVDTSKNQFSLRLNSVTAADTAVYFCARGQKNAKDQHEGFRYWGRGTLVTVSS
VL: SYELTQPPSVSVSPGQTARITCSGDALPKQFAYWYQQKSGQAPKLVIFKDTERPSGIPERFSASSSGTKATLTISGVQAEDEADYYCQSADRTATSWVFGGGTKLTVL
B7: NI-204.11F11 (antibody, human IgG1, V domains shown)
VH: EVQLVESGGGLVKPGGSLRLSCAASGLPFSKAWMSWVRQAPGKGLEWVGRIKSQADGGAIDYATSVNGRFTITRDDSKNTLYLQMTSLKTEDTAVYYCTPGIILRFLEGTLRGMDVWGQGTTVTVSS
VL: EIVLTQSPPTLSLSPGERATLSCRASQTVSKYLAWYQQKPGQAPRLLVYDTSNRAIGIPPRFSGSGSGTDFTLTISTLEPEDFALYYCQQRSNWPPTFGQGTRLEIK
B8: NI-204.34A3 (antibody, human IgG1, V domains shown)
VH: EVQLVESGGGLVKPGGSLRVSCDVSGQRLSKAWMNWVRQTPTRGLEWVGLIKRDADGGTTEFAAPVEGRFTISRDDIQNTMTLHMTRLRVDDTGVYYCVAGDIGCIKENCRWGEGTTVTVSS
VL: SYELTQPPSVSVSPGQTARITCSGDALPTKFAFWYQQKSGQAPVLVIYEDDKRPSGIPQRFSGSSSGTTATLTISGAQEEDDADYYCYSKDSTNVERVFGTGTKLSVL
B9: NI-204.67E12 (antibody, human IgG1, V domains shown)
VH: EVQLLESGGGLIRPGGSLRLSCAASGFTFSNYAMGWVRQAPGKGLEWVSAISGNGGSTYYGGSVKGRFTISRDKSKNTLYLQMNNLRADDTAVYFCAKLEAVAPTLTLRYFKHWGKGTLVTVSS
VL: DIQMTQSPSTLSASVGDRVTITCRASQSISRWLAWYQQRPGRAPDLLIYDASNLESGVPSRFSGSGSGTEFTLTISSLQPGDFATYYCQQYYSYVYTFGQGTKLEIK
B10: NI-204.25H3 (antibody, human IgG1, V domains shown)
VH: QVQLQESGPGLVKPSETLSLTCTVSGGSISSSYWSWIRQPPGQGLEWIGYIYYSGNTYYNPSLKSRVTISIDTSKTQFSLNLTSVSAADTAVYYCARDGIPGAIGMDVWGQGTTVTVSS
VL: QSVLTQPPSVSAAPGQKVNISCSGSSSNIGNNYVSWYQRLPGTAPKLLIYDNNKRPSGIPDRFSGSKSGTSATLGITGLQTGDGADYYCATWDKSLIAVVFGGGTKLTVL
B11: NI-204.7G5 (antibody, human IgG1, V domains shown)
VH: EVQLVESGGGVVQAGGSLRLSCVASGLTFSSYGMHWVRQAPGKGLEWVAVISYDGRSKFYADSVKGRFTISRDNSKNTLYLQMNSLRAEDAAVYYCANARVRDACSGTRCDKFGFYMDVWGKGTTVTVSS
VL: SYVLTQPPSVSVSPGQTARITCSGDALPKKYAYWYQQKSGQAPVLVIYEDIKRPSGIPERFSGSSSGTMATLTISGAQVEDEGDYYCYSADRSGNRWAFGGGTKLTVL

The binders below were run against T1, bovine serum albumin (bovine, UniProt P02769 25-607) (assay: direct ELISA, BSA coated at 3.3 µg/ml).
T1 construct: Control antigen in ELISA; also called BSA
T1 sequence (P02769 25-607 limits assumed): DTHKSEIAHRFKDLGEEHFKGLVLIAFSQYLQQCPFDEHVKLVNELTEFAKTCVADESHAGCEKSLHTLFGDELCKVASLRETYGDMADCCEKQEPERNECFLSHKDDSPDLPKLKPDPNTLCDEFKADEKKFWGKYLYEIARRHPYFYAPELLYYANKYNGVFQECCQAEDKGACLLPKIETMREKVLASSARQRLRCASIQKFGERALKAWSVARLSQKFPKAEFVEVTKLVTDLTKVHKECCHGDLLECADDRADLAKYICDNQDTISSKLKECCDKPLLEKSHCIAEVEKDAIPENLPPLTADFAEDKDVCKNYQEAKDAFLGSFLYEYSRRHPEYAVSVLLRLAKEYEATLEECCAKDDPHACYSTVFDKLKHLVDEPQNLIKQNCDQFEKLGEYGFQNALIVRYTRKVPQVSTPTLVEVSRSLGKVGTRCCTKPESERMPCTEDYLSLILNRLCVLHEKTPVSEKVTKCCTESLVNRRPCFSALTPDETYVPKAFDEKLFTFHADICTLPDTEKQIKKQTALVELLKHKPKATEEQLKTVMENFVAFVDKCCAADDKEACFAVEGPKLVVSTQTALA
From the text: Non-specific binding sites were blocked for 2 hr at RT with PBS containing 2% BSA (Sigma-Aldrich, Buchs, Switzerland) and 0.5% Tween20.

Binder | binding result
B1 | no binding
B2 | no binding
B3 | no binding
B4 | no binding

These binders were tested against T2, recombinant human SOD1 (biomol, Hamburg) (human, UniProt P00441 2-154, limits assumed) (assay: direct ELISA, recombinant SOD1 coated at 20 µg/ml).
T2 construct: Bought protein; also called recombinant human superoxide dismutase 1; Recombinant SOD1
T2 sequence (P00441 2-154 limits assumed): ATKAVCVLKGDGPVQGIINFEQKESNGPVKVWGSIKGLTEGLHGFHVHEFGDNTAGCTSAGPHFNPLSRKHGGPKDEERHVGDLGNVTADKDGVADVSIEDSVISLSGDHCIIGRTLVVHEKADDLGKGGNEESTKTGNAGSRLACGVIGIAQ
Method: (§1) Primary antibodies were diluted to the indicated concentrations and incubated 1 h at RT. Binding was determined using either a donkey anti-human IgG Fcγ-specific antibody conjugated with HRP or a goat anti-mouse IgG (H+L)-specific antibody conjugated with HRP, followed by measurement of HRP activity in a standard colorimetric assay.
(§2) The EC₅₀ of the different human-derived SOD1-specific antibodies for native human SOD1 dimers, denatured/oxidized human SOD1 and recombinant SOD1 was determined by direct ELISA with coating of the different SOD1 species at 20 μg/ml concentration.

Binder | EC50 [nM]
B5 | 42
B1 | > 100
B2 | 0.06
B6 | 2
B7 | 0.5
B8 | 2
B3 | 1
B9 | 0.2
B10 | 1
B11 | 13
B4 | 7

Each binder was assayed against T2, recombinant human SOD1 (biomol, Hamburg) (assay: direct ELISA, recombinant human SOD1 coated at 1 µg/ml).
Method: (§3) Binding was determined using either a goat anti-mouse IgG antibody (Jackson immunoResearch, Newmarket, UK) or a donkey anti-human IgGγ (Jackson immunoResearch, Newmarket, UK) antibody conjugated with HRP, followed by measurement of HRP activity in a standard colorimetric assay. The EC₅₀ values were estimated by a non-linear regression using GraphPad Prism (San Diego, USA) software.

Binder | EC50 [nM]
B3 | 19

These binders were tested against T2, recombinant human SOD1 (biomol, Hamburg) (assay: direct ELISA, recombinant human SOD1 coated at 10 µg/ml).

Binder | EC50 [nM]
B3 | 2

These binders were tested against T2, recombinant human SOD1 (biomol, Hamburg) (assay: direct ELISA, recombinant human SOD1 coated at 0.1 µg/ml).

Binder | EC50 [nM]
B3 | 96

These binders were tested against T2, recombinant human SOD1 (biomol, Hamburg) (assay: direct ELISA, recombinant human SOD1 coated at 3.3 µg/ml).
Method: Binding was determined using a donkey anti-human IgGγ antibody (Jackson immunoResearch, Newmarket, UK) conjugated with HRP, followed by measurement of HRP activity in a standard colorimetric assay.
The EC₅₀ values were estimated by a non-linear regression using GraphPad Prism (San Diego, USA) software.

Binder | EC50 [nM]
B1 | 105
B2 | 0.4
B3 | 2.7
B4 | 10

The binders below were run against T3, in vitro misfolded/aggregated human SOD1 (metal-catalyzed oxidation) (human, UniProt P00441 2-154, oxidized by metal-catalyzed oxidation (4 mM ascorbic acid, 0.2 mM CuCl2, 48 hours at 37 C); residues not stated) (assay: direct ELISA, oxidized human SOD1 coated at 20 µg/ml).
T3 construct: also called Oxidized SOD1; in vitro aggregated human SOD1 dimers
T3 sequence (P00441 2-154 limits assumed): as above

Binder | EC50 [nM]
B5 | > 100
B1 | > 100
B2 | 0.6
B6 | 4
B7 | 0.4
B8 | 12
B3 | > 100
B9 | 0.06
B10 | 2
B11 | 5
B4 | 6

These binders were tested against T4, in vitro denatured human SOD1 (human, UniProt P00441 2-154) (assay: direct ELISA, denatured human SOD1 coated at 20 µg/ml).
T4 construct: also called Denatured SOD1; unfolded SOD1
T4 sequence (P00441 2-154 limits assumed): as above
Method: as §1, §2

Binder | EC50 [nM]
B5 | 50
B2 | 0.07
B6 | 5
B7 | 0.3
B8 | 10
B3 | > 100
B9 | 0.08
B10 | 4
B11 | 60
B4 | 5

The binders below were run against T5, wild type SOD1 from human erythrocytes (physiological dimers) (human, UniProt P00441 2-154) (assay: direct ELISA, native human SOD1 dimers coated at 20 µg/ml).
T5 construct: Purified from human erythrocytes (Sigma-Aldrich); homodimer; control incubated in Tris acetate buffer without oxidants; also called Native SOD1; native human SOD1 dimers
T5 sequence (P00441 2-154 limits assumed): as above
Method: as §1, §2

Binder | EC50 [nM]
B5 | > 100
B1 | > 100
B2 | > 40
B6 | > 100
B7 | 50
B8 | > 100
B3 | > 100
B9 | 0.1
B10 | > 100
B11 | > 100

These binders were tested against T3, in vitro misfolded/aggregated human … (assay: direct ELISA, in vitro aggregated human SOD1 coated at 34 µg/ml).
Method: (§4) Non-specific binding sites were blocked for 1 hr at RT with PBS/0.1% Tween®-20 containing 2% BSA (Sigma-Aldrich, Buchs, Switzerland). […] Binding was determined using either a goat anti-mouse IgG antibody (Jackson immunoResearch, Newmarket, UK) or a donkey anti-human IgGγ antibody (Jackson immunoResearch, Newmarket, UK) conjugated with HRP, followed by measurement of HRP activity in a standard colorimetric assay. EC₅₀ values were estimated by a non-linear regression using GraphPad Prism software (San Diego, USA).

Binder | EC50 [nM]
B1 | 127
B2 | 3.6
B3 | 29.5
B4 | 15

What follows are binders tested against T5, wild type SOD1 from human erythrocytes … (assay: direct ELISA, physiological human SOD1 dimers coated at 34 µg/ml).
Method: as §4

Binder | EC50 [nM]
B3 | 19.1

Biological target: T2, recombinant human SOD1 (biomol, Hamburg)
Experiment: direct ELISA, recombinant human SOD1 coated at 1 µg/ml
Remark: another data set of the same source
Method: as §3

Binder | EC50 [nM]
B1 | 134
B2 | 3.1
B3 | 18.7
B4 | 81.4

Biological target: T2, recombinant human SOD1 (biomol, Hamburg)
Experiment: direct ELISA, recombinant human SOD1 coated at 10 µg/ml
Remark: another data set of the same source
Method: as §3

Binder | EC50 [nM]
B1 | 148
B2 | 0.39
B3 | 2.1
B4 | 24

The binders below were run against T2, recombinant human SOD1 (biomol, Hamburg) (assay: direct ELISA, recombinant human SOD1 coated at 30 µg/ml).
Method: as §3

Binder | EC50 [nM]
B1 | 117
B2 | 0.36
B3 | 2.2
B4 | 35

Biological target: T2, recombinant human SOD1 (biomol, Hamburg)
Experiment: direct ELISA, recombinant human SOD1 coated at 0.1 µg/ml
Remark: another data set of the same source
Method: as §3

Binder | EC50 [nM]
B1 | 451
B2 | 75.9
B3 | 95.9
B4 | 606

Each binder was assayed against wild type SOD1 from human erythrocytes (physiological dimers) (human) (UniProt P00441) (assay: direct ELISA, native human SOD1 dimers coated at 20 µg/ml; Native SOD1 (not denatured, oxidized or recombinant)).
Sequence of wild type SOD1 from human erythrocytes (physiological dimers) (human) (P00441 2-154 limits assumed): as above

Binder | EC50 [nM]
B4 | > 100
